Results: patent US20230303685A1 (ELECTRA THERAPEUTICS, published 2023)

B1: Antibody 11 (antibody, V domains shown)
VH: EVQLVESGGGLVQPGGSLRLSCAASGFTFSSYWMHWVRQAPGKGLVWVSRIHNDGSRTSYADSVKGRFTISRDNAKNTLYLQMSSLRAEDTAVYYCTRDPPPYDILTGYPFDYWGQGTLVTVSS
VL: DIQMTQSPSSVSASVGDRVTITCRASQDISSWLAWFQQKPGKAPKLLIYGASSLQSGVPSRFSGSGSGTDFTLTISSLQPEDFATYYCQEANSFPYTFGQGTKLEIK
notes: Human variable region, rat IgG2b Fc; from hybridoma
B2: Antibody 13 (antibody, V domains shown)
VH: EVQMLESGGGLVQPGGSLRLSCAASGFTFSSYAMSWVRQAPGKGLEWVSAISGSGSSTHYADSVKGRFTISRDNSKNTLYLQMNSLRAEDTAVYYCAAYSGSYYYYGMDVWGQGTTVTVSS
VL: EIVMTQSPATLSVSPGERATLSCRASQSVSRNLAWYQQKSGQAPRLLIYGASTRATGIPARFSGSGSGTEFTLTISSLQSEDFAGYYCQQYNNWPYTFGQGTKLEIK
notes: as for B1
B3: Antibody 12 (antibody, V domains shown)
VH: EVQVLESGGGLVQPGGSLRLSCAASGFTFSSYAMSWVRQAPGKGLEWVSAISGSGSSTHYADSVKGRFTISRDNSKNTLYLQMNSLRAEDTAVYYCAAYSGSYYYYGMDVWGQGTTVTVSS
VL: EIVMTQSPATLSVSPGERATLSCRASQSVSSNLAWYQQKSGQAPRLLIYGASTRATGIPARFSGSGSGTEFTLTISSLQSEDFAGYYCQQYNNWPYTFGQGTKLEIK
notes: as for B1
B4: Antibody 15 (antibody, V domains shown)
VH: QIQLVQSGPELKKPGETVKISCKGSGYTFRNFGMNWVKQAPGMGLKWMVWIDTNTGEPTYAEEFKGRFAFSLETSASTAYLQINNLKNEDTATYFCARSRGNYFAMEYWGQGTSVTVSS
VL: DIKMTQSPSSMYASLGERVTVTCKASQDINRYLSWFQQKPGKSPKTLIYRANRLVDGVPSRFSGSGSGQDYSLTISSLEYEDMGFYYCLQYDEFPFTFGSGTKLEIK
notes: Mouse variable region, mouse IgG2a Fc; from hybridoma
B5: Antibody 25 (antibody, V domains shown)
VH: EVQMLESGGGLVQPGGSLRLSCAASGFTFSSYAMSWVRQAPGKGLEWVSAISGSGSSTHYADSVKGRFTISRDNSKNTLYLQMNSLRAEDTAVYYCAAYSGSYYYYGMDVWGQGTTVTVSS
VL: EIVMTQSPATLSVSPGERATLSCRASQSVSRNLAWYQQKSGQAPRLLIYGASTRATGIPARFSGSGSGTEFTLTISSLQSEDFAGYYCQQYNNWPYTFGQGTKLEIK
notes: Variable regions of Antibody 13
B6: Antibody 29 (antibody, V domains shown)
VH: EVQMLESGGGLVQPGGSLRLSCAASGFTFSSYAMSWVRQAPGKGLEWVSAISGSGSSTHYADSVKGRFTISRDNSKNTLYLQMNSLRAEDTAVYYCAAYSGSYYYYGMDVWGQGTTVTVSS
VL: EIVMTQSPATLSVSPGERATLSCRASQSVSRNLAWYQQKSGQAPRLLIYGASTRATGIPARFSGSGSGTEFTLTISSLQSEDFAGYYCQQYNNWPYTFGQGTKLEIK

Legend:
[1] = target: T1, human SIRPα V1 extracellular domain, monomeric (human, UniProt P78324 31-373); experiment: ELISA, extracellular domain coated at 1 µg/mL, purified antibody titrated, anti-rat IgG, chemiluminescence
T1 construct: also called hSIRPα V1
Experimental: (§1) Select SIRP antibodies were purified by Protein G from hybridoma supernatants and analyzed in a titration via ELISA. Briefly, 1 μg/mL of extracellular domain SIRPα was coated onto high protein-binding plates and blocked. Purified antibodies were added in a titration to the coated plates. The antibodies were detected by an anti-rat IgG antibody and a chemiluminescent substrate.

[2] = target: T2, Human SIRPγ; experiment: ELISA, extracellular domain coated at 2 µg/mL, purified antibody titrated, anti-rat or anti-mouse IgG, chemiluminescence
T2 construct: also called human SIRPγ extracellular domain, plate-coated
T2 chain: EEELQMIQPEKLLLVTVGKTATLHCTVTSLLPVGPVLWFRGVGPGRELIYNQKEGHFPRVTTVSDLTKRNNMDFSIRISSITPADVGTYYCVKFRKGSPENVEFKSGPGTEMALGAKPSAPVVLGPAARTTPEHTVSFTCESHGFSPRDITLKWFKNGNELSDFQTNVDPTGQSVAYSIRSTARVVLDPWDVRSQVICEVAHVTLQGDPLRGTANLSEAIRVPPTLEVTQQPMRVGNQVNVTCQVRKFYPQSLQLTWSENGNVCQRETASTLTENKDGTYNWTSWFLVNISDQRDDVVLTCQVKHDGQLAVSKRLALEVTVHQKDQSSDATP
Experimental: as §1, with “2” for “1”, “of each of the SIRPs” for “SIRPα”, “IgG or an anti-mouse IgG” for “IgG”

[3] = target: T3, Human SIRPβ1; experiment: as above
T3 construct: also called human SIRPβ1 extracellular domain, plate-coated
T3 chain: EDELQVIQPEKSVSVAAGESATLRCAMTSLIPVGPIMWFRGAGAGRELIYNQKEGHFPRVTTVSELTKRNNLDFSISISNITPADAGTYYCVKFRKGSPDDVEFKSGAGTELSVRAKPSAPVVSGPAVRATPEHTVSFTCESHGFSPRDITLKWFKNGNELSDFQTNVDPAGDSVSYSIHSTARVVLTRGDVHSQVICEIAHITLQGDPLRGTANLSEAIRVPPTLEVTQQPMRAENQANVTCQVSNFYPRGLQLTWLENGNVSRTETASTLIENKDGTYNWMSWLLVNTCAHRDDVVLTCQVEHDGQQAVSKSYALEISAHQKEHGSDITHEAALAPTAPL
Experimental: as §1, with “2” for “1”, “of each of the SIRPs” for “SIRPα”, “IgG or an anti-mouse IgG” for “IgG”

[4] = target: T4, Human SIRPγ CHO; experiment: flow cytometry, stably transfected CHO cells, antibody titrated, labelled anti-rat or anti-mouse IgG, MFI
T4 construct: also called human SIRPγ on CHO cells
T4 chain: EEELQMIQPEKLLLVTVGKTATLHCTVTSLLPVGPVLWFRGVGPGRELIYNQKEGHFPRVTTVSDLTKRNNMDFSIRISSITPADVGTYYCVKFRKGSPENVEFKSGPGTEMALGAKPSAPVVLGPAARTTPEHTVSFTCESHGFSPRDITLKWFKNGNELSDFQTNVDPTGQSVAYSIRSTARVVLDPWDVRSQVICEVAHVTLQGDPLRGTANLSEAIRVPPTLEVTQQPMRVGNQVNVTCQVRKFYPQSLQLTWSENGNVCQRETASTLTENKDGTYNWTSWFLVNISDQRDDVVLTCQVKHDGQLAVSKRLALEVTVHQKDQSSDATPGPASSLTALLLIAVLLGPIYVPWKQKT
Experimental: (§2) Selected antibodies were tested for binding to stably transfected human SIRPα, SIRPβ1 (co-transfected with DAP12), or SIRPγ Chinese hamster ovary (CHO) cells via flow cytometry. A titration of SIRP antibodies was added to the cells and detected using a fluorescently labelled secondary antibody. Graph depicts the median fluorescence intensity (MFI) at each concentration.

[5] = target: T5, Human SIRPβ1/DAP12 CHO; experiment: as above
T5 construct: also called human SIRPβ1 on CHO cells co-transfected with DAP12; copies: 1 + 2
T5 sequence (DAP12, as listed by the source limits assumed): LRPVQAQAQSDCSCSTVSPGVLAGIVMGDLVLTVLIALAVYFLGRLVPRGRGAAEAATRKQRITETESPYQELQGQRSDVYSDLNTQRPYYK
Experimental: as §2

[6] = target: T6, Human SIRPγ conjugated to an Fc region (human); experiment: BLI blocking; 200 nM antibody pre-incubated with 20 nM SIRPγ-Fc, binding to immobilised CD47-His (competitor), % of response of SIRPγ-Fc alone
T6 construct: also called SIRPγ-Fc; SIRP-Fc; not shown: Fc region

[7] = target: T7, human SIRPα V1-His monomer (human, UniProt P78324 31-373, limits assumed); experiment: BLI (Octet); antibody on anti-mouse IgG capture tip, SIRP-His monomer at 100, 33.3, 11.1 nM, 1:1 fit, mean KD
T7 construct: 'SIRP-His monomer protein' of the Octet assay; also called SIRP-His; not shown: His tag
Experimental: (§3) Select SIRP antibodies were tested for their affinities to human SIRPα, SIRPβ1, and SIRPγ using a biolayer interferometry (BLI) Octet system (Pall ForteBio). Each SIRP antibody with rat or mouse Fc was immobilized on a biosensor tip by an anti-mouse IgG capture (AMC). Antibodies with human Fc were digested with gingipain K enzyme to yield monomeric F(ab′), biotinylated, then coated onto streptavidin biosensors. […] The biosensors were then exposed to wash buffer to measure off-rate kinetics. The resulting kinetic data were analyzed and fitted using a 1:1 binding model with kₒₙ and kdis fitted separately at each SIRP-His protein concentration. KD affinities were calculated as kdis to kₒₙ ratio at each concentration of SIRP-His and averaged.

[8] = target: T8, human SIRPγ-His monomer (human); experiment: as above
T8 construct: 'SIRP-His monomer protein' of the Octet assay; also called SIRP-His; not shown: His tag
Experimental: as §3

[9] = target: T9, human SIRPβ1-His monomer (human, UniProt O00241 30-371); experiment: as above
T9 construct: 'SIRP-His monomer protein' of the Octet assay; also called SIRP-His; not shown: His tag
Experimental: as §3

[10] = target: T10, cynomolgus monkey SIRPα extracellular domain, monomeric (cynomolgus monkey, UniProt A0A2K5VYQ9 31-372); experiment: SPR (Biacore); antibody captured by anti-IgG on chip, monomeric SIRPα extracellular domain as analyte, 1:1 model
T10 construct: extracellular domain; also called Cyno SIRPα
Experimental: (§4) Selected antibodies were tested for their affinities to two hSIRPα variants (V1 and V2), and to cynomolgus monkey (herein referred to as “cyno”) SIRPα. The affinities of these SIRP antibodies were determined using surface plasmon resonance. The SIRP antibodies were flowed onto a chip and captured by an anti-mouse IgG or an anti-human IgG covalently coupled to the surface of the chip. A three-point titration of the extracellular binding domain of hSIRPα was performed per the manufacturer's recommended protocols.

[11] = target: T1, human SIRPα V1 extracellular domain, …; experiment: as above
Experimental: as §4

[12] = target: T8, human SIRPγ-His monomer; experiment: BLI (Octet); antibody on anti-mouse IgG capture tip, SIRP-His monomer; no dissociation seen in 600 s
Experimental: as §3

[13] = target: T10, cynomolgus monkey SIRPα extracellular …; experiment: ELISA, extracellular domain coated at 2 µg/mL, purified antibody titrated, anti-rat or anti-mouse IgG, chemiluminescence
Experimental: as §1, with “2” for “1”, “of each of the SIRPs” for “SIRPα”, “IgG or an anti-mouse IgG” for “IgG”

[14] = target: T2, Human SIRPγ; experiment: ELISA, extracellular domain coated at 1 µg/mL, purified antibody titrated, anti-human IgG, chemiluminescence
Experimental: as §1
(§5) FIGS. 3A-3C show binding curves of SIRP antibodies and two isotype controls with human Fc to human SIRPα V1, human SIRPβ1, human SIRPγ and cynomolgus monkey SIRPα by ELISA. […] Isotype control 1 was an unrelated human IgG1 antibody with irrelevant CDRs. Isotype control 2 was the same as isotype control 1 but contained the same amino acid substitutions in the Fc region as some of the selected SIRP antibodies for increased FcγR binding (referring to Table 11). DNA was transiently transfected into CHO cells for 7 days. Antibodies were purified by Protein A from cell supernatants and analyzed in a titration via ELISA as previously described in FIGS. 2A-2B using an anti-human IgG antibody as the detection antibody.

[15] = target: T11, human SIRPα V2 extracellular domain, monomeric (human, UniProt P78324 31-370); experiment: SPR (Biacore); antibody captured by anti-IgG on chip, monomeric SIRPα extracellular domain as analyte, 1:1 model
T11 construct: also called hSIRPα V2
Experimental: as §4

[16] = target: T4, Human SIRPγ CHO; experiment: flow cytometry, stably transfected CHO cells, antibody titrated, labelled anti-human IgG, MFI
Experimental: as §2

[17] = target: T1, human SIRPα V1 extracellular domain, …; experiment: ELISA, extracellular domain coated at 1 µg/mL, purified antibody titrated, anti-human IgG, chemiluminescence
Experimental: as §1, §5

Binder	binding result [2]	binding result [3]	binding result [4]	binding result [5]	SIRPγ-CD47 Response (%) [6] [%]	Kd [7] [nM]	Kd [8] [nM]	Kd [10] [nM]	Kd [11] [nM]	Kd [12] [nM]	EC50 (read off the curve) [14] [µg/mL]	Kd [15] [nM]	other results
B1	binds	binds	binds	binds	-3.8	3.74	13.3	–	–	–	–	–	EC50 (read off the curve) [1]: ~0.1 µg/mL; Kd [9]: 61.9 nM
B2	–	–	–	–	111	0.922	–	16.7	12.6	< 0.001	–	–	–
B3	binds	binds	binds	binds	120	5.31	–	–	–	< 0.001	–	–	–
B4	–	binds	–	binds	129	0.244	54.4	–	–	–	–	–	EC50 (read off the curve) [2]: ~0.2 µg/mL; EC50 (read off the curve) [13]: ~0.1 µg/mL; EC50 (read off the curve) [4]: ~2 µg/mL
B5	–	–	–	–	–	–	–	12.6	11.4	–	~0.04	9.09	EC50 (read off the curve) [16]: ~0.7 µg/mL
B6	–	–	–	–	–	–	–	11.1	8.32	–	~0.05	10.3	EC50 (read off the curve) [17]: ~0.06 µg/mL
